PMC5888754
Changes are numbered by the printed parent chain. Read-outs that look alike come from different tables or passages of the source.

Assays:
CYV-VP3 (Culex Y virus) = assay: competition
DXV-VP3 = target: T1, DXV-VP3 (Drosophila X virus, UniProt Q96724 724-1032); assay: single-molecule TIRF
T1 sequence: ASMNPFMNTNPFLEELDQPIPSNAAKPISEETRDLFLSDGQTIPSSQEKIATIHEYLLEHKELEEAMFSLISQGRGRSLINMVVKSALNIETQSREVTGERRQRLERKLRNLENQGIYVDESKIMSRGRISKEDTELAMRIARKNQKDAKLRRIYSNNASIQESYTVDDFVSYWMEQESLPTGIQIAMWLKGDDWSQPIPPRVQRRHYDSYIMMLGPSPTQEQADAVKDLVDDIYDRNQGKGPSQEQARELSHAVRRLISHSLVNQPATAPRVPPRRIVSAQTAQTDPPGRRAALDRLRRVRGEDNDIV

DCV-1A [1] = target: T2, DCV-1A (Drosophila C virus, UniProt O36966 1-97); assay: single-molecule TIRF
T2 sequence: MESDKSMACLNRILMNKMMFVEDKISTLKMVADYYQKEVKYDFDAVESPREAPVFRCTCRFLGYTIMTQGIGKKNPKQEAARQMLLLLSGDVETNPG

DCV-1A [2] = target: T2, DCV-1A; assay: single-molecule TIRF; remark: listed apart in the source
DCV-1A [3] = target: T2, DCV-1A; assay: single-molecule TIRF; remark: listed apart in the source
Dcr-2;Loqs-PD (LqPD) = Dcr-2;Loqs-PD (LqPD) (Drosophila melanogaster?;Drosophila …, UniProt A1ZAW0;Q9VJY9-4 1-1722;1-359, |); assay: single-molecule TIRF

GGCAAUGAAAGAUCGCGGGUCUGCUCAAACACUCCGUUAUGUAGCAUUCCUUGAUCGUGAGAUUCUUCUU / AAGAAGAAUCUCACGAUCAAGGAAUGCUACAUAACGGAGUGUUUGAGCAGACCCGCGAUCUUUCAUUGCC [70-nt dsRNA blunt end]
binding signal (CYV-VP3 (Culex Y virus)): 80 % inhibition

B1: 50-nt dsRNA (structured_RNA)
RNA: GGGACCUCAUCCAACAUAUCAAACUCCAUCAUCCAACAUAUCAAACUCCAGUCGAGUGGAGUUUGAUAUGUUGGAUGAUGGAGUUUGAUAUGUUGGAUGAGGUCCCAA
binding result (DXV-VP3): binds
binding result (DCV-1A [1]): binds

B2: pre-let-7a-1 (2 mismatches) (structured_RNA)
RNA: UGAGGUAGUAGGUUGUAUAGUUUUAGGGUCACACCCACCACUGGGAGAUAACUAUACAAUCUACUGUCUUUCU
binding result (DCV-1A [2]): binds

B3: pre-miRNA (no mismatches) (structured_RNA)
RNA: B2 RNA with G5A, U6C
binding result (DCV-1A [3]): binds

B4: 70-nt dsRNA blunt end (dsRNA)
RNA 1: GGCAAUGAAAGAUCGCGGGUCUGCUCAAACACUCCGUUAUGUAGCAUUCCUUGAUCGUGAGAUUCUUCUU
RNA 2: AAGAAGAAUCUCACGAUCAAGGAAUGCUACAUAACGGAGUGUUUGAGCAGACCCGCGAUCUUUCAUUGCC
binding result (Dcr-2;Loqs-PD (LqPD)): binds
